In patent US20150344570A1 (published 2015):

B1: GpH7-A5/GpH7-B3 variant E333_13S/GpL16-k0 (antibody, human IgG1, kappa)
heavy 1: not shown
heavy 2: not shown
light: DIVMTQSPLSLPVTPGEPASISCQASESLVHSNRNTYLHWYLQKPGQSPQLLIYKVSNRFSGVPDRFSGSGSGTDFTLKISRVEAEDVGVYYCSQNTHVPPTFGQGTKVEIERTVAAPSVFIFPPSDEQLKSGTASVVCLLNNFYPREAKVQWKVDNALQSGNSQESVTEQDSKDSTYSLSSTLTLSKADYEKHKVYACEVTHQGLSSPVTKSFNRGEC
notes: also called He Ab E333_13S
B2: GpH7-A5/GpH7-B3 variant L328_14T/GpL16-k0 (antibody, human IgG1, kappa)
heavy 1: not shown
heavy 2: not shown
light: B1 light
notes: also called He Ab L328_14T
B3: GpH7-A5/GpH7-B3 variant H268_02A/GpL16-k0 (antibody, human IgG1, kappa)
heavy 1: not shown
heavy 2: not shown
light: B1 light
notes: also called He Ab H268_02A
B4: GpH7-A5/GpH7-B3 variant Y296_16H/GpL16-k0 (antibody, human IgG1, kappa)
heavy 1: not shown
heavy 2: not shown
light: B1 light
notes: also called He Ab Y296_16H
B5: GpH7-A5/GpH7-B3 variant S337_07I/GpL16-k0 (antibody, human IgG1, kappa)
heavy 1: not shown
heavy 2: not shown
light: B1 light
notes: also called He Ab S337_07I
B6: GpH7-A5/GpH7-B3 variant K326_01G/GpL16-k0 (antibody, human IgG1, kappa)
heavy 1: not shown
heavy 2: not shown
light: B1 light
notes: also called He Ab K326_01G
B7: GpH7-A5/GpH7-B3 variant T335_01G/GpL16-k0 (antibody, human IgG1, kappa)
heavy 1: not shown
heavy 2: not shown
light: B1 light
notes: also called He Ab T335_01G
B8: GpH7-A5/GpH7-B3 variant K326_19Q/GpL16-k0 (antibody, human IgG1, kappa)
heavy 1: not shown
heavy 2: not shown
light: B1 light
notes: also called He Ab K326_19Q
B9: GpH7-A5/GpH7-B3 variant K326_07I/GpL16-k0 (antibody, human IgG1, kappa)
heavy 1: not shown
heavy 2: not shown
light: B1 light
notes: also called He Ab K326_07I
B10: GpH7-A5/GpH7-B3 variant G236_03V/GpL16-k0 (antibody, human IgG1, kappa)
heavy 1: not shown
heavy 2: not shown
light: B1 light
notes: also called He Ab G236_03V
B11: GpH7-A5/GpH7-B3 variant L234_20W/GpL16-k0 (antibody, human IgG1, kappa)
heavy 1: not shown
heavy 2: not shown
light: B1 light
notes: also called He Ab L234_20W
B12: GpH7-A5/GpH7-B3 variant L234_15Y/GpL16-k0 (antibody, human IgG1, kappa)
heavy 1: not shown
heavy 2: not shown
light: B1 light
notes: also called He Ab L234_15Y
B13: GpH7-A5/GpH7-B3 variant K326_12R/GpL16-k0 (antibody, human IgG1, kappa)
heavy 1: not shown
heavy 2: not shown
light: B1 light
notes: also called He Ab K326_12R
B14: GpH7-A5/GpH7-B3 variant H268_18N/GpL16-k0 (antibody, human IgG1, kappa)
heavy 1: not shown
heavy 2: not shown
light: B1 light
notes: also called He Ab H268_18N
B15: GpH7-A5/GpH7-B3 variant G236_04F/GpL16-k0 (antibody, human IgG1, kappa)
heavy 1: not shown
heavy 2: not shown
light: B1 light
notes: also called He Ab G236_04F
B16: GpH7-A5/GpH7-B3 variant K334_08L/GpL16-k0 (antibody, human IgG1, kappa)
heavy 1: not shown
heavy 2: not shown
light: B1 light
notes: also called He Ab K334_08L
B17: GpH7-A5/GpH7-B3 variant S337_08L/GpL16-k0 (antibody, human IgG1, kappa)
heavy 1: not shown
heavy 2: not shown
light: B1 light
notes: also called He Ab S337_08L
B18: GpH7-A5/GpH7-B3 variant I336_18N/GpL16-k0 (antibody, human IgG1, kappa)
heavy 1: not shown
heavy 2: not shown
light: B1 light
notes: also called He Ab I336_18N
B19: GpH7-A5/GpH7-B3 variant S267_10E/GpL16-k0 (antibody, human IgG1, kappa)
heavy 1: not shown
heavy 2: not shown
light: B1 light
notes: also called He Ab S267_10E
B20: GpH7-A5/GpH7-B3 variant A330_16H/GpL16-k0 (antibody, human IgG1, kappa)
heavy 1: not shown
heavy 2: not shown
light: B1 light
notes: also called He Ab A330_16H
B21: GpH7-A5/GpH7-B3 variant I336_08L/GpL16-k0 (antibody, human IgG1, kappa)
heavy 1: not shown
heavy 2: not shown
light: B1 light
notes: also called He Ab I336_08L
B22: GpH7-A5/GpH7-B3 variant S337_09D/GpL16-k0 (antibody, human IgG1, kappa)
heavy 1: not shown
heavy 2: not shown
light: B1 light
notes: also called He Ab S337_09D
B23: GpH7-A5/GpH7-B3 variant S239_10E/GpL16-k0 (antibody, human IgG1, kappa)
heavy 1: not shown
heavy 2: not shown
light: B1 light
notes: also called He Ab S239_10E
B24: GpH7-A5/GpH7-B3 variant L328_06M/GpL16-k0 (antibody, human IgG1, kappa)
heavy 1: not shown
heavy 2: not shown
light: B1 light
notes: also called He Ab L328_06M
B25: GpH7-A5/GpH7-B3 variant K326_06M/GpL16-k0 (antibody, human IgG1, kappa)
heavy 1: not shown
heavy 2: not shown
light: B1 light
notes: also called He Ab K326_06M
B26: GpH7-A5/GpH7-B3 variant Y296_09D/GpL16-k0 (antibody, human IgG1, kappa)
heavy 1: not shown
heavy 2: not shown
light: B1 light
notes: also called He Ab Y296_09D
B27: GpH7-A5/GpH7-B3 variant K334_13S/GpL16-k0 (antibody, human IgG1, kappa)
heavy 1: not shown
heavy 2: not shown
light: B1 light
notes: also called He Ab K334_13S
B28: GpH7-A5/GpH7-B3 variant S239_09D/GpL16-k0 (antibody, human IgG1, kappa)
heavy 1: not shown
heavy 2: not shown
light: B1 light
notes: also called He Ab S239_09D
B29: GpH7-A5/GpH7-B3 variant L328_20W/GpL16-k0 (antibody, human IgG1, kappa)
heavy 1: not shown
heavy 2: not shown
light: B1 light
notes: also called He Ab L328_20W
B30: GpH7-A5/GpH7-B3 variant S267_02A/GpL16-k0 (antibody, human IgG1, kappa)
heavy 1: not shown
heavy 2: not shown
light: B1 light
notes: also called He Ab S267_02A
B31: GpH7-A5/GpH7-B3 variant K334_19Q/GpL16-k0 (antibody, human IgG1, kappa)
heavy 1: not shown
heavy 2: not shown
light: B1 light
notes: also called He Ab K334_19Q
B32: GpH7-A5/GpH7-B3 variant K334_16H/GpL16-k0 (antibody, human IgG1, kappa)
heavy 1: not shown
heavy 2: not shown
light: B1 light
notes: also called He Ab K334_16H
B33: GpH7-A5/GpH7-B3 variant E333_14T/GpL16-k0 (antibody, human IgG1, kappa)
heavy 1: not shown
heavy 2: not shown
light: B1 light
notes: also called He Ab E333_14T
B34: GpH7-A5/GpH7-B3 variant Y296_04F/GpL16-k0 (antibody, human IgG1, kappa)
heavy 1: not shown
heavy 2: not shown
light: B1 light
notes: also called He Ab Y296_04F
B35: GpH7-A5/GpH7-B3 variant S337_20W/GpL16-k0 (antibody, human IgG1, kappa)
heavy 1: not shown
heavy 2: not shown
light: B1 light
notes: also called He Ab S337_20W
B36: GpH7-A5/GpH7-B3 variant S324_02A/GpL16-k0 (antibody, human IgG1, kappa)
heavy 1: not shown
heavy 2: not shown
light: B1 light
notes: also called He Ab S324_02A
B37: GpH7-A5/GpH7-B3 variant S337_10E/GpL16-k0 (antibody, human IgG1, kappa)
heavy 1: not shown
heavy 2: not shown
light: B1 light
notes: also called He Ab S337_10E
B38: GpH7-A5/GpH7-B3 variant T335_18N/GpL16-k0 (antibody, human IgG1, kappa)
heavy 1: not shown
heavy 2: not shown
light: B1 light
notes: also called He Ab T335_18N
B39: GpH7-A5/GpH7-B3 variant L235_15Y/GpL16-k0 (antibody, human IgG1, kappa)
heavy 1: not shown
heavy 2: not shown
light: B1 light
notes: also called He Ab L235_15Y
B40: GpH7-A5/GpH7-B3 variant G236_07I/GpL16-k0 (antibody, human IgG1, kappa)
heavy 1: not shown
heavy 2: not shown
light: B1 light
notes: also called He Ab G236_07I
B41: GpH7-A5/GpH7-B3 variant L234_04F/GpL16-k0 (antibody, human IgG1, kappa)
heavy 1: not shown
heavy 2: not shown
light: B1 light
notes: also called He Ab L234_04F
B42: GpH7-A5/GpH7-B3 variant I336_06M/GpL16-k0 (antibody, human IgG1, kappa)
heavy 1: not shown
heavy 2: not shown
light: B1 light
notes: also called He Ab I336_06M
B43: GpH7-A5/GpH7-B3 variant K326_10E/GpL16-k0 (antibody, human IgG1, kappa)
heavy 1: not shown
heavy 2: not shown
light: B1 light
notes: also called He Ab K326_10E
B44: GpH7-A5/GpH7-B3 variant H268_19Q/GpL16-k0 (antibody, human IgG1, kappa)
heavy 1: not shown
heavy 2: not shown
light: B1 light
notes: also called He Ab H268_19Q
B45: GpH7-A5/GpH7-B3 variant E333_09D/GpL16-k0 (antibody, human IgG1, kappa)
heavy 1: not shown
heavy 2: not shown
light: B1 light
notes: also called He Ab E333_09D
B46: GpH7-A5/GpH7-B3 variant L235_20W/GpL16-k0 (antibody, human IgG1, kappa)
heavy 1: not shown
heavy 2: not shown
light: B1 light
notes: also called He Ab L235_20W
B47: GpH7-A5/GpH7-B3 variant I336_10E/GpL16-k0 (antibody, human IgG1, kappa)
heavy 1: not shown
heavy 2: not shown
light: B1 light
notes: also called He Ab I336_10E
B48: GpH7-A5/GpH7-B3 variant G236_15Y/GpL16-k0 (antibody, human IgG1, kappa)
heavy 1: not shown
heavy 2: not shown
light: B1 light
notes: also called He Ab G236_15Y
B49: GpH7-A5/GpH7-B3 variant S267_09D/GpL16-k0 (antibody, human IgG1, kappa)
heavy 1: not shown
heavy 2: not shown
light: B1 light
notes: also called He Ab S267_09D
B50: GpH7-A5/GpH7-B3 variant G236_14T/GpL16-k0 (antibody, human IgG1, kappa)
heavy 1: not shown
heavy 2: not shown
light: B1 light
notes: also called He Ab G236_14T
B51: GpH7-A5/GpH7-B3 variant K334_04F/GpL16-k0 (antibody, human IgG1, kappa)
heavy 1: not shown
heavy 2: not shown
light: B1 light
notes: also called He Ab K334_04F
B52: GpH7-A5/GpH7-B3 variant I336_03V/GpL16-k0 (antibody, human IgG1, kappa)
heavy 1: not shown
heavy 2: not shown
light: B1 light
notes: also called He Ab I336_03V
B53: GpH7-A5/GpH7-B3 variant L235_04F/GpL16-k0 (antibody, human IgG1, kappa)
heavy 1: not shown
heavy 2: not shown
light: B1 light
notes: also called He Ab L235_04F
B54: GpH7-A5/GpH7-B3 variant S239_08L/GpL16-k0 (antibody, human IgG1, kappa)
heavy 1: not shown
heavy 2: not shown
light: B1 light
notes: also called He Ab S239_08L
B55: GpH7-A5/GpH7-B3 variant V266_08L/GpL16-k0 (antibody, human IgG1, kappa)
heavy 1: not shown
heavy 2: not shown
light: B1 light
notes: also called He Ab V266_08L
B56: GpH7-A5/GpH7-B3 variant T335_20W/GpL16-k0 (antibody, human IgG1, kappa)
heavy 1: not shown
heavy 2: not shown
light: B1 light
notes: also called He Ab T335_20W

target: FcγRIIa H (human, UniProt P12318 34-217); assay: SPR Biacore, captured antibody, FcγR analyte; vs GpH7-A5/GpH7-B3/GpL16-k0 = 100
Sequence (P12318 34-217): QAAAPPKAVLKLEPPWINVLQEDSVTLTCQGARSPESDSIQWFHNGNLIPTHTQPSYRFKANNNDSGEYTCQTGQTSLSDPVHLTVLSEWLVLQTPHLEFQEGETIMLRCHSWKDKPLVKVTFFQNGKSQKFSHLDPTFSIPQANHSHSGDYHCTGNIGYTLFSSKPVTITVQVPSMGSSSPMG

Binder | He/Con_2aH
B1 | 101 % of control
B2 | 116 % of control
B3 | 114 % of control
B4 | 104 % of control
B5 | 101 % of control
B6 | 100 % of control
B7 | 103 % of control
B8 | 101 % of control
B9 | 100 % of control
B10 | 119 % of control
B11 | 114 % of control
B12 | 120 % of control
B13 | 101 % of control
B14 | 112 % of control
B15 | 118 % of control
B16 | 104 % of control
B17 | 100 % of control
B18 | 103 % of control
B19 | 102 % of control

Binder | He/Con_2aH
B20 | 101 % of control
B21 | 106 % of control
B22 | 107 % of control
B23 | 112 % of control
B24 | 104 % of control
B25 | 103 % of control
B26 | 104 % of control
B27 | 102 % of control
B28 | 114 % of control
B29 | 113 % of control
B30 | 120 % of control
B31 | 101 % of control
B32 | 104 % of control
B33 | 100 % of control
B34 | 100 % of control
B35 | 102 % of control
B36 | 102 % of control
B37 | 102 % of control
B38 | 103 % of control

Binder | He/Con_2aH
B39 | 122 % of control
B40 | 115 % of control
B41 | 120 % of control
B42 | 106 % of control
B43 | 102 % of control
B44 | 102 % of control
B45 | 103 % of control
B46 | 118 % of control
B47 | 102 % of control
B48 | 136 % of control
B49 | 105 % of control
B50 | 103 % of control
B51 | 106 % of control
B52 | 102 % of control
B53 | 111 % of control
B54 | 105 % of control
B55 | 104 % of control
B56 | 105 % of control
